Measured values reported in patent US20250171512A1.

Target: human FGFR1c together with human beta-Klotho (KLB), stably expressed on CHO Flp-In cells (human), P11362
Experiment: cell-based or functional assay

Sequence of human FGFR1c together with human beta-Klotho (KLB), stably expressed on CHO Flp-In cells (human), P11362 (P11362 22-822, chain 1 of 2): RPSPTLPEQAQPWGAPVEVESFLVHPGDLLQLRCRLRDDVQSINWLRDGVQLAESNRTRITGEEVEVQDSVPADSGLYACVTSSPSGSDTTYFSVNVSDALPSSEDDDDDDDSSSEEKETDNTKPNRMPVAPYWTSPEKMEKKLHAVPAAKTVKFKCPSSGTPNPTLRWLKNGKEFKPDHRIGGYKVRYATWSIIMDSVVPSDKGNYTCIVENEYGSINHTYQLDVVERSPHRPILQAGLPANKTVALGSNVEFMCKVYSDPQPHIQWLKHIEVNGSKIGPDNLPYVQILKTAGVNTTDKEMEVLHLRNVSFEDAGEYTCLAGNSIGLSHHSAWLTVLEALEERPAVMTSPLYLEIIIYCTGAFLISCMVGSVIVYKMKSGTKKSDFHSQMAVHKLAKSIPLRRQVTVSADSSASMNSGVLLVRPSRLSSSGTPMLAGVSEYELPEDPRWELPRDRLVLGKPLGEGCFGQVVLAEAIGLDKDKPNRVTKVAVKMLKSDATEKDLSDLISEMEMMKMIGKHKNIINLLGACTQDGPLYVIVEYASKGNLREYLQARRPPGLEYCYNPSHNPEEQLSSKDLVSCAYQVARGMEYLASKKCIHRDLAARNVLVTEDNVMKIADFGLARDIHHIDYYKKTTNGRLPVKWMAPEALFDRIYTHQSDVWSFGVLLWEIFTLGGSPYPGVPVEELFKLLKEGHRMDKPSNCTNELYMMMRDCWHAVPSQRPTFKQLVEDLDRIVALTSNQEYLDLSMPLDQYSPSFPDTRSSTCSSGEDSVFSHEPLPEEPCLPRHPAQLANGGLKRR
Sequence of human FGFR1c together with human beta-Klotho (KLB), stably expressed on CHO Flp-In cells (human), P11362 (Q86Z14 whole entry, chain 2 of 2, further chain): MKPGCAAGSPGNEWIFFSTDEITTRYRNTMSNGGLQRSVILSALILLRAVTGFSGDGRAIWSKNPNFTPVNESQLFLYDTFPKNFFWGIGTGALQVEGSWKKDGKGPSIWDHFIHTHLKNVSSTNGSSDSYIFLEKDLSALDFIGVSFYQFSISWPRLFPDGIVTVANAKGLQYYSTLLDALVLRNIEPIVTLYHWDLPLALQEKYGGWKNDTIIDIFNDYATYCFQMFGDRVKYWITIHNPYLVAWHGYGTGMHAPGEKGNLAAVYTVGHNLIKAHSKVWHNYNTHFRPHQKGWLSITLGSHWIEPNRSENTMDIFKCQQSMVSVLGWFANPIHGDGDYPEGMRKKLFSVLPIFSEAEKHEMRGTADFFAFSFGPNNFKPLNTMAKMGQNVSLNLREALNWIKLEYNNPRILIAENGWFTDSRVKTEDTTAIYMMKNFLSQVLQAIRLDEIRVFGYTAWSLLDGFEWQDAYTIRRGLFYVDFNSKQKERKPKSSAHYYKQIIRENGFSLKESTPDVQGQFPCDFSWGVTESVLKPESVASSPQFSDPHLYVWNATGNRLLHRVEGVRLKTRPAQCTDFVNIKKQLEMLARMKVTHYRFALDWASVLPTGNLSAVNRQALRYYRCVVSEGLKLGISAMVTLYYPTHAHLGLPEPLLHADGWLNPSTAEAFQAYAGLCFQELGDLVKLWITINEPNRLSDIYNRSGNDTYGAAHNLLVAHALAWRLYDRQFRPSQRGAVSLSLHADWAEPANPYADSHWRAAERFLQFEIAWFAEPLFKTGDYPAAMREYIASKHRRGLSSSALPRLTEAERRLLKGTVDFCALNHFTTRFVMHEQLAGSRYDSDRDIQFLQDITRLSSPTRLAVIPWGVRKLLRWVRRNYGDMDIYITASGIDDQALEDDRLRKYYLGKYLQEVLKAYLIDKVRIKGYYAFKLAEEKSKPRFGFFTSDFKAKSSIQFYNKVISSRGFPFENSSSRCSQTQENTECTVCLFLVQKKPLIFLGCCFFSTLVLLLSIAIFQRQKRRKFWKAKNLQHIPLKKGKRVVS

Binder	pERK ICW EC50	pFGFR ICW EC50	pFGFR ICW Emax	In-Cell Western EC50
FGF21, human (SEQ ID NO: 2), without N-terminal tag, Q9NSA1 29-209 (ligand) HPIPDSSPLLQFGGQVRQRYLYTDDAQQTEAHLEIREDGTVGGAADQSPESLLQLKALKPGVIQILGVKTSRFLCQRPDGALYGSLHFDPEACSFRELLLEDGYNVYQSEAHGLPLHLPGNKSPHRDPAPRGPARFLPLPGLPPAPPEPPGILAPQPPDVGSSDPLSMVGPSQGRSPSYAS	0.17 nmol/L	4.49 nmol/L	146%	
FGF21 R154Q, D155K (SEQ ID NO: 131), Q9NSA1 29-209 (ligand) GHPIPDSSPLLQFGGQVRQRYLYTDDAQQTEAHLEIREDGTVGGAADQSPESLLQLKALKPGVIQILGVKTSRFLCQRPDGALYGSLHFDPEACSFRELLLEDGYNVYQSEAHGLPLHLPGNKSPHQKPAPRGPARFLPLPGLPPAPPEPPGILAPQPPDVGSSDPLSMVGPSQGRSPSYAS	0.39 nmol/L			
FGF21 K150H, P152L (SEQ ID NO: 140), Q9NSA1 29-209 (ligand) GHPIPDSSPLLQFGGQVRQRYLYTDDAQQTEAHLEIREDGTVGGAADQSPESLLQLKALKPGVIQILGVKTSRFLCQRPDGALYGSLHFDPEACSFRELLLEDGYNVYQSEAHGLPLHLPGNHSLHRDPAPRGPARFLPLPGLPPAPPEPPGILAPQPPDVGSSDPLSMVGPSQGRSPSYAS	0.13 nmol/L			
FGF21 H153Q, R154Q, D155N, A157V, R159K (SEQ ID NO: 132), Q9NSA1 29-209 (ligand) GHPIPDSSPLLQFGGQVRQRYLYTDDAQQTEAHLEIREDGTVGGAADQSPESLLQLKALKPGVIQILGVKTSRFLCQRPDGALYGSLHFDPEACSFRELLLEDGYNVYQSEAHGLPLHLPGNKSPQQNPVPKGPARFLPLPGLPPAPPEPPGILAPQPPDVGSSDPLSMVGPSQGRSPSYAS	0.23 nmol/L			
FGF21 D155E (SEQ ID NO: 128), Q9NSA1 29-209 (ligand) GHPIPDSSPLLQFGGQVRQRYLYTDDAQQTEAHLEIREDGTVGGAADQSPESLLQLKALKPGVIQILGVKTSRFLCQRPDGALYGSLHFDPEACSFRELLLEDGYNVYQSEAHGLPLHLPGNKSPHREPAPRGPARFLPLPGLPPAPPEPPGILAPQPPDVGSSDPLSMVGPSQGRSPSYAS	0.13 nmol/L			
FGF21 G202T (SEQ ID NO: 154), Q9NSA1 29-209 (ligand) GHPIPDSSPLLQFGGQVRQRYLYTDDAQQTEAHLEIREDGTVGGAADQSPESLLQLKALKPGVIQILGVKTSRFLCQRPDGALYGSLHFDPEACSFRELLLEDGYNVYQSEAHGLPLHLPGNKSPHRDPAPRGPARFLPLPGLPPAPPEPPGILAPQPPDVGSSDPLSMVGPSQTRSPSYAS	0.01 nmol/L			
FGF21 K150H (SEQ ID NO: 139), Q9NSA1 29-209 (ligand) GHPIPDSSPLLQFGGQVRQRYLYTDDAQQTEAHLEIREDGTVGGAADQSPESLLQLKALKPGVIQILGVKTSRFLCQRPDGALYGSLHFDPEACSFRELLLEDGYNVYQSEAHGLPLHLPGNHSPHRDPAPRGPARFLPLPGLPPAPPEPPGILAPQPPDVGSSDPLSMVGPSQGRSPSYAS	0.15 nmol/L			
FGF21 D155N (SEQ ID NO: 129), Q9NSA1 29-209 (ligand) GHPIPDSSPLLQFGGQVRQRYLYTDDAQQTEAHLEIREDGTVGGAADQSPESLLQLKALKPGVIQILGVKTSRFLCQRPDGALYGSLHFDPEACSFRELLLEDGYNVYQSEAHGLPLHLPGNKSPHRNPAPRGPARFLPLPGLPPAPPEPPGILAPQPPDVGSSDPLSMVGPSQGRSPSYAS	0.06 nmol/L			
G-FGF21 (SEQ ID NO: 3), without N-terminal tag, Q9NSA1 29-209 (ligand) GHPIPDSSPLLQFGGQVRQRYLYTDDAQQTEAHLEIREDGTVGGAADQSPESLLQLKALKPGVIQILGVKTSRFLCQRPDGALYGSLHFDPEACSFRELLLEDGYNVYQSEAHGLPLHLPGNKSPHRDPAPRGPARFLPLPGLPPAPPEPPGILAPQPPDVGSSDPLSMVGPSQGRSPSYAS	0.24 nmol/L			
FGF21 D155K (SEQ ID NO: 125), Q9NSA1 29-209 (ligand) GHPIPDSSPLLQFGGQVRQRYLYTDDAQQTEAHLEIREDGTVGGAADQSPESLLQLKALKPGVIQILGVKTSRFLCQRPDGALYGSLHFDPEACSFRELLLEDGYNVYQSEAHGLPLHLPGNKSPHRKPAPRGPARFLPLPGLPPAPPEPPGILAPQPPDVGSSDPLSMVGPSQGRSPSYAS	0.06 nmol/L			
FGF21 D155Y (SEQ ID NO: 126), Q9NSA1 29-209 (ligand) GHPIPDSSPLLQFGGQVRQRYLYTDDAQQTEAHLEIREDGTVGGAADQSPESLLQLKALKPGVIQILGVKTSRFLCQRPDGALYGSLHFDPEACSFRELLLEDGYNVYQSEAHGLPLHLPGNKSPHRYPAPRGPARFLPLPGLPPAPPEPPGILAPQPPDVGSSDPLSMVGPSQGRSPSYAS	0.07 nmol/L			
FGF21 P152A, H153K, R154K, D155E, P156A, A157S, R159Q (SEQ ID NO: 133), Q9NSA1 29-209 (ligand) GHPIPDSSPLLQFGGQVRQRYLYTDDAQQTEAHLEIREDGTVGGAADQSPESLLQLKALKPGVIQILGVKTSRFLCQRPDGALYGSLHFDPEACSFRELLLEDGYNVYQSEAHGLPLHLPGNKSAKKEASPQGPARFLPLPGLPPAPPEPPGILAPQPPDVGSSDPLSMVGPSQGRSPSYAS	0.24 nmol/L			
G-FGF21 with a leucine in position 174 (SEQ ID NO: 174), Q9NSA1 29-209 (ligand) GHPIPDSSPLLQFGGQVRQRYLYTDDAQQTEAHLEIREDGTVGGAADQSPESLLQLKALKPGVIQILGVKTSRFLCQRPDGALYGSLHFDPEACSFRELLLEDGYNVYQSEAHGLPLHLPGNKSPHRDPAPRGPARFLPLPGLPPALPEPPGILAPQPPDVGSSDPLSMVGPSQGRSPSYAS				0.21 nM
FGF21 H153Y, R154K, D155N, P156K, A157G (SEQ ID NO: 134), Q9NSA1 29-209 (ligand) GHPIPDSSPLLQFGGQVRQRYLYTDDAQQTEAHLEIREDGTVGGAADQSPESLLQLKALKPGVIQILGVKTSRFLCQRPDGALYGSLHFDPEACSFRELLLEDGYNVYQSEAHGLPLHLPGNKSPYKNKGPRGPARFLPLPGLPPAPPEPPGILAPQPPDVGSSDPLSMVGPSQGRSPSYAS	0.05 nmol/L			
FGF21 R159-R163 deleted and replaced by HE (SEQ ID NO: 150), Q9NSA1 29-209 (ligand) GHPIPDSSPLLQFGGQVRQRYLYTDDAQQTEAHLEIREDGTVGGAADQSPESLLQLKALKPGVIQILGVKTSRFLCQRPDGALYGSLHFDPEACSFRELLLEDGYNVYQSEAHGLPLHLPGNKSPHRDPAPHEFLPLPGLPPAPPEPPGILAPQPPDVGSSDPLSMVGPSQGRSPSYAS	0.98 nmol/L			
FGF21 N149-A162 deleted and replaced by GSHSGS (SEQ ID NO: 138), Q9NSA1 29-209 (ligand) GHPIPDSSPLLQFGGQVRQRYLYTDDAQQTEAHLEIREDGTVGGAADQSPESLLQLKALKPGVIQILGVKTSRFLCQRPDGALYGSLHFDPEACSFRELLLEDGYNVYQSEAHGLPLHLPGGSHSGSRFLPLPGLPPAPPEPPGILAPQPPDVGSSDPLSMVGPSQGRSPSYAS	0.19 nmol/L			
FGF21 G202-R203 deleted (SEQ ID NO: 157), Q9NSA1 29-209 (ligand) GHPIPDSSPLLQFGGQVRQRYLYTDDAQQTEAHLEIREDGTVGGAADQSPESLLQLKALKPGVIQILGVKTSRFLCQRPDGALYGSLHFDPEACSFRELLLEDGYNVYQSEAHGLPLHLPGNKSPHRDPAPRGPARFLPLPGLPPAPPEPPGILAPQPPDVGSSDPLSMVGPSQSPSYAS	1.63 nmol/L			

Further lines, results first:

pERK ICW EC50	pFGFR ICW EC50	pFGFR ICW Emax	In-Cell Western EC50	Binder
3.69 nmol/L				FGF21 N149-R163 deleted and replaced by GSGS (SEQ ID NO: 136), Q9NSA1 29-209 (ligand) GHPIPDSSPLLQFGGQVRQRYLYTDDAQQTEAHLEIREDGTVGGAADQSPESLLQLKALKPGVIQILGVKTSRFLCQRPDGALYGSLHFDPEACSFRELLLEDGYNVYQSEAHGLPLHLPGGSGSFLPLPGLPPAPPEPPGILAPQPPDVGSSDPLSMVGPSQGRSPSYAS
0.57 nmol/L				FGF21 N149-A162 deleted and replaced by GSHSG (SEQ ID NO: 137), Q9NSA1 29-209 (ligand) GHPIPDSSPLLQFGGQVRQRYLYTDDAQQTEAHLEIREDGTVGGAADQSPESLLQLKALKPGVIQILGVKTSRFLCQRPDGALYGSLHFDPEACSFRELLLEDGYNVYQSEAHGLPLHLPGGSHSGRFLPLPGLPPAPPEPPGILAPQPPDVGSSDPLSMVGPSQGRSPSYAS
0.08 nmol/L				FGF21 A162Y (SEQ ID NO: 151), Q9NSA1 29-209 (ligand) GHPIPDSSPLLQFGGQVRQRYLYTDDAQQTEAHLEIREDGTVGGAADQSPESLLQLKALKPGVIQILGVKTSRFLCQRPDGALYGSLHFDPEACSFRELLLEDGYNVYQSEAHGLPLHLPGNKSPHRDPAPRGPYRFLPLPGLPPAPPEPPGILAPQPPDVGSSDPLSMVGPSQGRSPSYAS
0.08 nmol/L				FGF21 D155P (SEQ ID NO: 127), Q9NSA1 29-209 (ligand) GHPIPDSSPLLQFGGQVRQRYLYTDDAQQTEAHLEIREDGTVGGAADQSPESLLQLKALKPGVIQILGVKTSRFLCQRPDGALYGSLHFDPEACSFRELLLEDGYNVYQSEAHGLPLHLPGNKSPHRPPAPRGPARFLPLPGLPPAPPEPPGILAPQPPDVGSSDPLSMVGPSQGRSPSYAS
0.17 nmol/L				FGF21 R159H (SEQ ID NO: 152), Q9NSA1 29-209 (ligand) GHPIPDSSPLLQFGGQVRQRYLYTDDAQQTEAHLEIREDGTVGGAADQSPESLLQLKALKPGVIQILGVKTSRFLCQRPDGALYGSLHFDPEACSFRELLLEDGYNVYQSEAHGLPLHLPGNKSPHRDPAPHGPARFLPLPGLPPAPPEPPGILAPQPPDVGSSDPLSMVGPSQGRSPSYAS
0.11 nmol/L				FGF21 D155L (SEQ ID NO: 124), Q9NSA1 29-209 (ligand) GHPIPDSSPLLQFGGQVRQRYLYTDDAQQTEAHLEIREDGTVGGAADQSPESLLQLKALKPGVIQILGVKTSRFLCQRPDGALYGSLHFDPEACSFRELLLEDGYNVYQSEAHGLPLHLPGNKSPHRLPAPRGPARFLPLPGLPPAPPEPPGILAPQPPDVGSSDPLSMVGPSQGRSPSYAS
0.14 nmol/L				FGF21 R154Q, D155L (SEQ ID NO: 130), Q9NSA1 29-209 (ligand) GHPIPDSSPLLQFGGQVRQRYLYTDDAQQTEAHLEIREDGTVGGAADQSPESLLQLKALKPGVIQILGVKTSRFLCQRPDGALYGSLHFDPEACSFRELLLEDGYNVYQSEAHGLPLHLPGNKSPHQLPAPRGPARFLPLPGLPPAPPEPPGILAPQPPDVGSSDPLSMVGPSQGRSPSYAS
0.17 nmol/L				FGF21 S200M (SEQ ID NO: 153), Q9NSA1 29-209 (ligand) GHPIPDSSPLLQFGGQVRQRYLYTDDAQQTEAHLEIREDGTVGGAADQSPESLLQLKALKPGVIQILGVKTSRFLCQRPDGALYGSLHFDPEACSFRELLLEDGYNVYQSEAHGLPLHLPGNKSPHRDPAPRGPARFLPLPGLPPAPPEPPGILAPQPPDVGSSDPLSMVGPMQGRSPSYAS
0.21 nmol/L				FGF21 P152-H153 deleted (SEQ ID NO: 135), Q9NSA1 29-209 (ligand) GHPIPDSSPLLQFGGQVRQRYLYTDDAQQTEAHLEIREDGTVGGAADQSPESLLQLKALKPGVIQILGVKTSRFLCQRPDGALYGSLHFDPEACSFRELLLEDGYNVYQSEAHGLPLHLPGNKSRDPAPRGPARFLPLPGLPPAPPEPPGILAPQPPDVGSSDPLSMVGPSQGRSPSYAS
